Measurements taken from article PMC3554864.

Target: NS3 helicase (NS3, with protease domain) (Hepatitis C virus (genotype ), UniProt Q9WMX2 1027-1657)
Test: KMnO4 footprinting

Chain of NS3 helicase (NS3, with protease domain) (Q9WMX2 1027-1657): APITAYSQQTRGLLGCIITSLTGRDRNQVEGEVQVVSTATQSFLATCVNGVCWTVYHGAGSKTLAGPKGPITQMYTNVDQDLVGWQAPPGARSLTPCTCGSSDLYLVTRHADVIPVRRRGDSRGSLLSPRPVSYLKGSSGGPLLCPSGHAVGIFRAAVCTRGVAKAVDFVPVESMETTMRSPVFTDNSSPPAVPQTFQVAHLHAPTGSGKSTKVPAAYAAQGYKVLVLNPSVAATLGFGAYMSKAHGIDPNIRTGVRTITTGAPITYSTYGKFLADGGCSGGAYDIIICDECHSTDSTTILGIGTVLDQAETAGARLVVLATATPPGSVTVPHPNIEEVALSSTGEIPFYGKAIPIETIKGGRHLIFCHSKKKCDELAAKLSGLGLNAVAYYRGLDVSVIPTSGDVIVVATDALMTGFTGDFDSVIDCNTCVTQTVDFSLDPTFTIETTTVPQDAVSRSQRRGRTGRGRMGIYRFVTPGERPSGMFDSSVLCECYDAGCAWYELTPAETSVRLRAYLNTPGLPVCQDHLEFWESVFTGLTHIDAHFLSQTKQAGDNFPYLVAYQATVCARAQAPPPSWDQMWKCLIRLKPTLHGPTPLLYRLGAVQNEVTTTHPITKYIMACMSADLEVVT

B1: 30mer blunt duplex (dsDNA)
DNA 1: GCTCTCTGTCTGTCTGTGTCTCTGTCTCTG
DNA 2: CAGAGACAGAGACACAGACAGACAGAGAGC
modifications: biotin (position not stated for this duplex)
binding result: binds
